The results in this text go back to patent publication US20240400654A1.

B1: KB001 mouse Fab variant VL Q91E (Fab, V domains shown)
VH: EVQLKQSGPGLVAPSQSLSITCTVSGFSLSIYSVHWVRQPPGKGLEWLGMIWGGGSSDYNSALKSRLSISKDNSKSQVFLKMNSLQTDDTAMYYCARNGNFYAMDYWGQGTSVTVSS
VL: QIVLTQSPAIMSASLGERVTMTCTASSSVSSSFLHWYQQKPGSSPQLWIYSTSNLASGVPARFSGSGSGTSYSLTISSMEAEDAATYYCHEYHHSPYIYTFGGGTKLEIK
B2: KB001 mouse Fab variant VL I98V (Fab, V domains shown)
VH: B1 VH
VL: B1 VL with E91Q, I98V
B3: KB001 mouse Fab variant VL S95C (Fab, V domains shown)
VH: B1 VH
VL: B1 VL with E91Q, S95C
B4: KB001 mouse Fab variant VL S95H (Fab, V domains shown)
VH: B1 VH
VL: B1 VL with E91Q, S95H
B5: KB001 mouse Fab variant VL S95T (Fab, V domains shown)
VH: B1 VH
VL: B1 VL with E91Q, S95T
B6: KB001 mouse Fab variant VL H94Y (Fab, V domains shown)
VH: B1 VH
VL: B1 VL with E91Q, H94Y
B7: KB001 mouse Fab variant VL Y92N (Fab, V domains shown)
VH: B1 VH
VL: B1 VL with E91Q, Y92N
B8: KB001 mouse Fab variant VL I98L (Fab, V domains shown)
VH: B1 VH
VL: B1 VL with E91Q, I98L
B9: KB001 mouse Fab variant VL S95F (Fab, V domains shown)
VH: B1 VH
VL: B1 VL with E91Q, S95F
B10: KB001 mouse Fab variant VL T100I (Fab, V domains shown)
VH: B1 VH
VL: B1 VL with E91Q, T100I
B11: KB001 mouse Fab variant VL S95W (Fab, V domains shown)
VH: B1 VH
VL: B1 VL with E91Q, S95W
B12: KB001 mouse Fab variant VL Y97V (Fab, V domains shown)
VH: B1 VH
VL: B1 VL with E91Q, Y97V
B13: KB001 mouse Fab variant VL Y97F (Fab, V domains shown)
VH: B1 VH
VL: B1 VL with E91Q, Y97F
B14: KB001 parental mouse Fab (FASEBA), WT clone (Fab, V domains shown)
VH: B1 VH
VL: B1 VL with E91Q
B15: KB001 mouse Fab variant VL S95N (Fab, V domains shown)
VH: B1 VH
VL: B1 VL with E91Q, S95N
B16: KB001 mouse Fab variant VL S95Y (Fab, V domains shown)
VH: B1 VH
VL: B1 VL with E91Q, S95Y
B17: KB001 mouse Fab variant VL Y97L (Fab, V domains shown)
VH: B1 VH
VL: B1 VL with E91Q, Y97L
B18: KB001 mouse Fab variant VL I98M (Fab, V domains shown)
VH: B1 VH
VL: B1 VL with E91Q, I98M
B19: KB001 mouse Fab variant VL Y97Q (Fab, V domains shown)
VH: B1 VH
VL: B1 VL with E91Q, Y97Q
B20: KB001 mouse Fab variant VL Y97K (Fab, V domains shown)
VH: B1 VH
VL: B1 VL with E91Q, Y97K
B21: KB001 mouse Fab variant VL Y97S (Fab, V domains shown)
VH: B1 VH
VL: B1 VL with E91Q, Y97S
B22: KB001 mouse Fab variant VL Y97I (Fab, V domains shown)
VH: B1 VH
VL: B1 VL with E91Q, Y97I
B23: KB001 mouse Fab variant VL S95Q (Fab, V domains shown)
VH: B1 VH
VL: B1 VL with E91Q, S95Q
B24: KB001 mouse Fab variant VL S95E (Fab, V domains shown)
VH: B1 VH
VL: B1 VL with E91Q, S95E
B25: KB001 mouse Fab variant VL Y97H (Fab, V domains shown)
VH: B1 VH
VL: B1 VL with E91Q, Y97H
B26: KB001 mouse Fab variant VL H93N (Fab, V domains shown)
VH: B1 VH
VL: B1 VL with E91Q, H93N
B27: KB001 mouse Fab variant VL H94F (Fab, V domains shown)
VH: B1 VH
VL: B1 VL with E91Q, H94F
B28: KB001 mouse Fab variant VL I98R (Fab, V domains shown)
VH: B1 VH
VL: B1 VL with E91Q, I98R
B29: KB001 mouse Fab variant VL T100V (Fab, V domains shown)
VH: B1 VH
VL: B1 VL with E91Q, T100V
B30: KB001 mouse Fab variant VL Y92D (Fab, V domains shown)
VH: B1 VH
VL: B1 VL with E91Q, Y92D
B31: KB001 mouse Fab variant VL S95I (Fab, V domains shown)
VH: B1 VH
VL: B1 VL with E91Q, S95I
B32: KB001 mouse Fab variant VL T100P (Fab, V domains shown)
VH: B1 VH
VL: B1 VL with E91Q, T100P
B33: KB001 mouse Fab variant VL S95A (Fab, V domains shown)
VH: B1 VH
VL: B1 VL with E91Q, S95A
B34: KB001 mouse Fab variant VL Y97R (Fab, V domains shown)
VH: B1 VH
VL: B1 VL with E91Q, Y97R
B35: KB001 parental mouse Fab FASEBA variant VH K64H (Fab, V domains shown)
VH: B1 VH with K64H
VL: B1 VL with E91Q
B36: KB001 parental mouse Fab FASEBA variant VH K64G (Fab, V domains shown)
VH: B1 VH with K64G
VL: B1 VL with E91Q

Where a chain is given by its changes, count along the chain named. In names and notes the source's numbering stands. Several values for one entry are separate records, joined by “and”; a condition that tells them apart may be missing. Equal values may be shown once.

One assay addresses HRgpA-6H (Porphyromonas gingivalis) (UniProt P28784). In words: ELISA, FASEBA Fab supernatant on coated HRgpA-6H.
Turning to B1, the OD450 nm was 0.709 and 0.694 and 0.701.
Still for that read-out and setting: as for B2, the figure is 0.832 and 0.838 and 0.787.
On the same count and under the same terms, to B3 belongs 0.849; to B4, 0.8.
On to B5, for which the OD450 nm was determined as 0.871.
The same measure, in the same setting: to B6 belongs 0.865; to B7, 0.773.
Still for that read-out and setting: as for B8, the figure is 0.836; as for B9, 0.837; as for B10, 0.493.
On the same count and under the same terms, to B11 belongs 0.804 and 0.79.
B12 came in with an OD450 nm of 0.662.
Consider B13, for which the OD450 nm is 0.75 and 0.756.
Still for that read-out and setting: as for B14, the figure is 0.9 and 0.889; as for B15, 0.863 and 0.884; as for B16, 0.827.
On the same count and under the same terms, as for B17, the figure is 0.739; as for B18, 0.729.
On the same count and under the same terms, to B19 belongs 0.687; to B20, 0.654; to B21, 0.633.
In the case of B22, the OD450 nm was found to be 0.667.
On the same count and under the same terms, to B23 belongs 0.893.
The same measure, in the same setting: as for B24, the figure is 0.855 and 0.82.
On the same count and under the same terms, as for B25, the figure is 0.775.
With B26, the OD450 nm was found to be 0.857.
On the same count and under the same terms, as for B27, the figure is 0.77; as for B28, 0.726 and 0.722; as for B29, 0.461 and 0.428.
On the same count and under the same terms, to B30 belongs 0.758.
On to B31, for which the OD450 nm is 0.846 and 0.817 and 0.791.
Same read-out and setting: as for B32, the figure is 0.46.
Turning to B33, the OD450 nm is 0.83 and 0.872.
As for B34, the OD450 nm stood at 0.769.

The next assay has the same target. The experiment in a line: ELISA, FASEBA screening, coated HRgpA-6H 0.0625 ug/ml. (In general: An ELISA detects its analyte on a solid surface through an enzyme-linked reagent.)
In the case of B35, the OD450 nm was 0.788 and 0.806 and 0.73.
On the same count and under the same terms, as for B36, the figure is 0.811.

The target is the same in the next assay. In words: ELISA on coated HRgpA-6H, OD relative to parental Fab.
In the case of B1, the Ratio OD(Variant)/OD(WT) was 0.823 fold and 0.806 fold and 0.814 fold.
With B2, the Ratio OD(Variant)/OD(WT) was 0.951 fold and 0.958 fold and 0.899 fold.
B3: the Ratio OD(Variant)/OD(WT) amounted to 0.924 fold.
On the same count and under the same terms, to B4 belongs 0.871 fold; to B5, 0.948 fold; to B6, 0.942 fold.
B7: the Ratio OD(Variant)/OD(WT) worked out at 0.821 fold.
On the same count and under the same terms, as for B8, the figure is 0.955 fold; as for B9, 0.911 fold.
As for B10, the Ratio OD(Variant)/OD(WT) was 0.942 fold.
On the same count and under the same terms, as for B11, the figure is 0.875 fold and 0.86 fold.
Still for that read-out and setting: as for B12, the figure is 0.839 fold; as for B13, 0.951 fold and 0.958 fold; as for B14, 0.98 fold and 0.968 fold.
Still for that read-out and setting: to B15 belongs 0.94 fold and 0.962 fold.
As for B16, the Ratio OD(Variant)/OD(WT) was 0.9 fold.
The same measure, in the same setting: as for B17, the figure is 0.937 fold.
Still for that read-out and setting: as for B18, the figure is 0.833 fold; as for B19, 0.871 fold; as for B20, 0.829 fold.
Turning to B21, the Ratio OD(Variant)/OD(WT) is 0.802 fold.
Still for that read-out and setting: to B22 belongs 0.845 fold; to B23, 0.972 fold; to B24, 0.931 fold and 0.893 fold.
Same read-out and setting: to B25 belongs 0.982 fold.
Same read-out and setting: as for B26, the figure is 0.91 fold.
Take B27: the Ratio OD(Variant)/OD(WT) came to 0.838 fold.
Same read-out and setting: as for B28, the figure is 0.83 fold and 0.825 fold; as for B29, 0.881 fold and 0.818 fold; as for B30, 0.805 fold.
Same read-out and setting: as for B31, the figure is 0.921 fold and 0.889 fold and 0.861 fold.
On the same count and under the same terms, as for B32, the figure is 0.879 fold; as for B33, 0.904 fold and 0.949 fold; as for B34, 0.975 fold.

The target is the same in the next assay. The experiment in a line: ELISA, FASEBA screening, coated HRgpA-6H; variant OD over parental WT Fab OD.
As to B35, the Ratio OD(Variant)/OD(WT) is 0.953 and 0.975 and 0.883.
Still for that read-out and setting: to B36 belongs 0.981.
